# From the nanobody polyreactivity screen of Harvey et al. (2022)
# Test: yeast display, Sf9 membrane polyspecificity reagent, FACS + sequencing; frameworks hold sequencing errors
# Summary of the method: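 Galactose induction of a Saccharomyces cerevisiae BJ5465 synthetic nanobody display library ran 36–48 hours. The cells were then stained for 1 hour at 4 °C with 10% biotinylated, detergent-solubilized Sf9 membrane reagent, pulled down on streptavidin microbeads and FACS-sorted into low and high (top ~1%) gates on expression and reagent-binding fluorescence. Labels for polyreactivity follow the gate of origin.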
row,Sequence,polyreactivity (PSR sort gate)
1,QVQLVESGGGLVQAGGSLRLSCAASGFTFRYYAMGWYRQAPGKERELVAAITSRGGSTYYADSVKGRFTISRDNAKNTVYLQMNSLKPEDTAVYYCAAETWRPSPYSRVSTYDYWGQGTQVTVSS,high polyreactivity
2,QVQLVESGGGLVQAGGSLRLSCAASGFTFRYYAMGWYRQAPGKERELVAGITWSGTNTYYADSVKGRFTISRDNAKNTVYLQMNSLKPEDTAVYYCITSPYLHYYYWGQGTQVTVSS,high polyreactivity
3,QVQLVESGGGLVQAGGSLRLSCAASGFTFRYYAMGWYRQAPRKERELVAAIPRNGGSTYYADTVKGRFTISRDNAKNTVYLQMKSLKPEDTAVYYCAAAYYRDSDRRFNYWGQGTQVTVSS,high polyreactivity
4,QVQLVESGGGLVQAGGSLRLSCAASGFTFRYYTMGWYRQAPGKERELVAAITASGSSTYYADSVKGRFTISRDNAKNTVYLQMNSLKPEDTAVYYSKALHFYGVGRYDHWGQGNQVTVSS,high polyreactivity
5,QVQLVESGGGLVQAGGSLRLSCAASGFTFRYYTMGWYRQAPGKERELVASISRRGGSTYYADSVKGRFTISRDNAKNTVFLQMNSLKPEDTAVYYCNTLSQVFASRAPKFDYWGQGTQVTVSS,high polyreactivity
6,QVQLVESGGGLVQAGGSLRLSCAASGFTFSAYAMGWYRQAPGKERELVAAITRSGGSTYYADSVKGRFTISRDNAKNTVYLQMNSLKPEDTAVYYCAKSDRPWWGYYYQFDYWGQGTQVTVSS,low polyreactivity
7,QVQLVESGGGLVQAGGSLRLSCAASGFTFSAYAMGWYRQAPGKERELVASITRSGGSTYYADSVKGRFTISRDNAKNTVYLQMNCLKPEDTAVFYCAKSDRPWWGYYYQFDYWGQGTQVSVSS,low polyreactivity
8,QVQLVESGGGLVQAGGSLRLSCAASGFTFSCYAMGWYRQAPGKEREFVAAISRRGAITSYADSVKGRFTISRDNAKNTVYLQMNSLKPEDTAVYYCNARYPHYYYSAYNYWGQGSQVTVSS,high polyreactivity
9,QVQLVESGGGLVQAGGSLRLSCAASGFTFSDNAMGWDRQAPGKERELVATISQSSGSTSYADSVKGRFTISRDYAKNTVYLQLNSLKPEDTAVYSCANRRLFYWGKGTQVTVSS,low polyreactivity
10,QVQLVESGGGLVQAGGSLRLSCAASGFTFSENTMGWYRQAPGKERELVADIDSGGSTYYADSVKGRFTISRDNAKNTVYLQMNSLKPEVTAVYYCAIDYHVVGGQTFLFEYDYWGQGTQVTVSS,low polyreactivity
11,QVQLVESGGGLVQAGGSLRLSCAASGFTFSFYAIGWYRQAPGKERELVAAINYSGGRTYYADSVKGRFTISRDNAKNTVYLQMNSLKPEDTAVYYCAVHIPSVSGVTDYYYWGQGSQVTVSS,high polyreactivity
12,QVQLVESGGGLVQAGGSLRLSCAASGFTFSFYAMGRYRQAPGKEREYVAAITNSGGSTYYADSVKGRFTISRDNAKNTVYLQMNSLKPEDTGVYYCASKRAWPGYFTYYSWGQGTQVTVSS,high polyreactivity
13,QVQLVESGGGLVQAGGSLRLSCAASGFTFSGNAMGWYRQAPGKEREIVAAITARGGNTFYADSVKGRFTISRDNAKNTVYLQMNSLQPEETAVSYCKRGPYYSSSKYRFSAYHRAYWGQGNQVTVSS,high polyreactivity
14,QVQLVESGGGLVQAGGSLRLSCAASGFTFSGNVMGWYRQAPGKERELVAGISRSGSSTSYADSVKGRFTISRDNAKNTVYLQMNSLKPEDTAVYYCNKVKRSYYYVDTDYWGQGTQVTVSS,high polyreactivity
15,QVQLVESGGGLVQAGGSLRLSCAASGFTFSGYDIGWYRQAPGKERELVAGISSGGVSTTYADSVKGRFTISRDNAKNTVYLQMNSLKPEDTAVYYCNAEWTSFDWGQGTQVTVSS,low polyreactivity
16,QVQLVESGGGLVQAGGSLRLSCAASGFTFSINAMGWYRQAPGKERELVASITWSGGRTYYADSVKGRFTISRDNAKNTVYLQMNSLKPEDTAVYYCAARSYGTSTYDYWGQGTQETVSS,high polyreactivity
17,QVQLVESGGGLVQAGGSLRLSCAASGFTFSKYAMGWYRQAPGKERELVAGITWSGGRTYYADSVKGRFTISRDNAKNTVYLQLNSLIPDDSAVYYCAADPVWGRYIKYDYWGQGTQVTVSS,high polyreactivity
18,QVQLVESGGGLVQAGGSLRLSCAASGFTFSKYAMGWYRQAPGTERELVASIDDGGSTNYADSVKGRFTISRDNAKTTVYLQMNRLNPEDTAVYYCNASYPTGYWYYVIVQYDYWGQGTQVTVSS,low polyreactivity
19,QVQLVESGGGLVQAGGSLRLSCAASGFTFSKYDMGWYRQATGKERELVAAISRSAGSTYYADSVKGRFTISRDHAKNTVYLQMNSLKPEDTAVYYCARDNPRSPSGYNYWGQGTQVTVSS,high polyreactivity
20,QVQLVESGGGLVQAGGSLRLSCAASGFTFSKYVMGWYRQAPGKERELVAAITTSGGSTYYADSVKGRFTISRDNAKNTVYLQMNSLKPEDTAVYYCNARSLHTSEGDYWGQGTQVTVSS,low polyreactivity
21,QVQLVESGGGLVQAGGSLRLSCAASGFTFSLNTMGWYRQAPGKERELVAAINSGDSTYADSVKGRFTISRDNAKNTVYLQMNSLKPEDTAVYYCNADPDWWYPYNYWGLGTQVTVSS,low polyreactivity
22,QVQLVESGGGLVQAGGSLRLSCAASGFTFSQYAMGWYRQAPGKERELDAAISWNGGSTYYADSVKGRFTISRDNAKNTVYLQMNSLKPEDTAVYYCAAYGYYTKVTKYDYWGQGTQVTVSS,high polyreactivity

row,Sequence,polyreactivity (PSR sort gate)
1,QVQLVESGGGLVQAGGSLRLSCAASGFTFSRNAMGWYRQAPGKERELVAAIDSGGSTDYADSVKGRFTISRDNAKNTVYLQLNSLKPEDTAVYYCAKASSATRYVQLRQDYDYWGQGTQVTVSS,low polyreactivity
2,QVQLVESGGGLVQAGGSLRLSCAASGFTFSRNTMGSSRQAPGKERELVARIPASGGSTYYADSVKGRFTISRDNAKNTVYLLMNSLNPEDTAVYYCAAVYRRYGASRYDYWGQGTQVTVSS,high polyreactivity
3,QVQLVESGGGLVQAGGSLRLSCAASGFTFSRYAMGWYRQAPGKEREFVAAISWSGGSTYYADSVKGRFTISRDNAKNTVYLQMNSLKPEDTAVYYCNAGSQLLASQTRYDYWGQGTQVTVSS,low polyreactivity
4,QVQLVESGGGLVQAGGSLRLSCAASGFTFSRYVMGWYRQAPGKERELVATISSDGDDTYYADSVKGRFTISRDNAKNTVYLQMNSLKPEDTAVYYCAAESYTYYADYGYGYWGQGTQVTVSS,high polyreactivity
5,QVQLVESGGGLVQAGGSLRLSCAASGFTFSSYAMGWYRQEPGKERELVAAISTSGASTYYADSVKGRFTISRDNAKNTVYLQMNSLKPEDTAVYYCNVPQWHRWYRYPGEDYDYWGQGTQVTVSS,high polyreactivity
6,QVQLVESGGGLVQAGGSLRLSCAASGFTFSTNAMGWYRQAPGKERELVAAITWRGGSTYYADSVKGRFTISRDNAKNTVYLQMNSLKPEDTAVYYCARRSRGSHVSYYKKFDYWGQGTQVTVSS,low polyreactivity
7,QVQLVESGGGLVQAGGSLRLSCAASGFTFSTYTMGWYRQAPGKERELVARITWSGTRTYYADSVKGRFTISRDNAKNTVYLQMNSLKPEDTAVYYCNAGPYARYYWGQGTQVTVSS,high polyreactivity
8,QVQLVESGGGLVQAGGSLRLSCAASGFTFSVNAMGWYRQAPGKERELVAAITRSGGRTYYADSVKGRFTISRDNAKNTVYLQMNSLKPEDTAVYYCATPRSRTDGYDYWGQGTQVTVSS,high polyreactivity
9,QVQLVESGGGLVQAGGSLRLSCAASGFTFSWYALGWYRQAPGKERELVAAINWSGTSTYYADSVKGRFTISRDNAKNTVYLQMNSLKPEDTAVYYCNVVVYRWSPVSKLDYWGQGTQVTVSS,high polyreactivity
10,QVQLVESGGGLVQAGGSLRLSCAASGFTFSWYAMGRYRQAPGKERELVAAISSAGNTNYADSVKGRFTISRDNAKNTVYLQMNSLKPEDTAVYYCAKRDYWGQGTQVTVSS,high polyreactivity
11,QVQLVESGGGLVQAGGSLRLSCAASGFTFSWYAMGWYRQAPGKERELVAAINADGGTTYYADSVKGRFTISRDNAKNTVYLQMNRLKPEDTAVYYCAAELSVDKYDYWGQGTQVTVSS,low polyreactivity
12,QVQLVESGGGLVQAGGSLRLSCAASGFTFSWYAMGWYRQAPGKETELVAAITRSGGSTNYADSVKGRFTISRDNAKNTVYLQMNSLKPEDTAVYYCNAAGYRRSTWWYDYWGQGTQVTVSS,high polyreactivity
13,QVQLVESGGGLVQAGGSLRLSCAASGFTFSYNSMGRYRQATAKERELVARISRTGGSTNYADSVKGRFTISRDNAKNTVYLQMNSLKPEDTAVYYCATGYRYTYGSWGQGTQVTVSS,high polyreactivity
14,QVQLVESGGGLVQAGGSLRLSCAASGFTFSYYAMGWDRQAPGKERELVAVISNSDGSTYYADSVKGRFTISRDNAKNTVYLQMNSLNPEDTAVYYCAAVPLWDYKFFYYLLYDYWGQGTQVTVSS,low polyreactivity
15,QVQLVESGGGLVQAGGSLRLSCAASGFTFSYYAMGWYRQAPGKERELVAAISWSGTAMYYADSVKGRFTISRDNAKNTVYLQMNSLKPEDTAVYYCAAGYSASRKVDYWGQGTQVTVSS,high polyreactivity
16,QVQLVESGGGLVQAGGSLRLSCAASGFTFSYYAMGWYRQAPGKERELVAAITKRGGRTYYADSVKGRFTISRDNAKNTVYLQMNSLKPEDTAVYYCAVQARNAFYRPAFDYWGQGTQVTVSS,high polyreactivity
17,QVQLVESGGGLVQAGGSLRLSCAASGFTFSYYAMGWYRQAPGKERELVARISFSGTRTYYADSVKGRFTISRDNAKNTVYLQMNSLKQEDTAVYYCAARLGYVGITARYDYWGQGTQVTVSS,high polyreactivity
18,QVQLVESGGGLVQAGGSLRLSCAASGFTFSYYAMGWYRQAPGKERELVAVISDRGGITYYADSVKGRFTISRDIAKITVYLQMNSLKPEDTAVYYCAAQNPRYNYRYYYWGQGTQVTVSS,low polyreactivity
19,QVQLVESGGGLVQAGGSLRLSCAASGFTFSYYAMGWYRQATGKERELVAAITSGGSTDYADSVKGRFTISRDNAKNTVYLQMNSLKPEDTAVYYCAVTARGGYQGKGTRRIYGYWGHGTQVTVSS,high polyreactivity
20,QVQLVESGGGLVQAGGSLRLSCAASGFTFSYYARGWYRQAPGKARELVATISSGGITNYADSVKGRFTISRDNAKNTDYLQMNSLKPEDTAVYYCAAEPSWWNVFYPGYNYWGQGTQVTVSS,high polyreactivity
21,QVQLVESGGGLVQAGGSLRLSCAASGFTFSYYVMGWYRQAAGKERELVAAINRGGSTNYADSVKRRFTISRDNAKNTVYLQMNSLKPEDTAVYYCAARFPGYGYWGQGTEVTVSS,high polyreactivity
